# T1: murine CD300LB stably expressed on Jurkat cells (mouse, UniProt Q3U497 18-209)
# T1 construct: also called muCD300LB; mouse CD300LB
# T1 sequence: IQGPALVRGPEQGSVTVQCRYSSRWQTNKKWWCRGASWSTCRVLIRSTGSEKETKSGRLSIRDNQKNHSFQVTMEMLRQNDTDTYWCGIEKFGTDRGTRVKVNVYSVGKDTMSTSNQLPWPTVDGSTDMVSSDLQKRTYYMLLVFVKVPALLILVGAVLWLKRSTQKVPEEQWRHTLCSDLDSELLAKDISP
# T2: human CD300LB transiently expressed on HEK293 cells (human, UniProt A8K4G0 18-201)
# T2 construct: CD300LB expression constructs'; also called huCD300LB HEK293
# T2 sequence: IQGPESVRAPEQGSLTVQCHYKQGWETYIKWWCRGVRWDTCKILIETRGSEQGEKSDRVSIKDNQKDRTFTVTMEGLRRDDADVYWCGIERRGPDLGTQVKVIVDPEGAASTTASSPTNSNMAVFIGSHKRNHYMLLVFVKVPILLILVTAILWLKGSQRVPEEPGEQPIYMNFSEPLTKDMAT
# T3: huCD300F constitutively expressed on 293 Freestyle (Freestyle HEK) cells (human, UniProt Q8TDQ1 20-290)
# T3 construct: also called huCD300LF; Human CD300F
# T3 sequence: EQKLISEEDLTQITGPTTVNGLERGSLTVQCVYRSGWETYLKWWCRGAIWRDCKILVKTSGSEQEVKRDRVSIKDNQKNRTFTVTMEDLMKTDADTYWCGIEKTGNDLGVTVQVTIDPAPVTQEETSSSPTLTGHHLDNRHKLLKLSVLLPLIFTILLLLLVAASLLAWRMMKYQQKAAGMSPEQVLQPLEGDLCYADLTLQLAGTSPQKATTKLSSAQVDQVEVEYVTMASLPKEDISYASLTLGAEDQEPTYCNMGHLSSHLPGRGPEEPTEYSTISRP
# What was measured:
# [1] = target: T1, murine CD300LB stably expressed on …; assay: flow cytometry, stable Jurkat cells, supernatant or 10 ug/mL, isotype subtracted
# Protocol: Purified anti-CD300LB antibodies of the present disclosure were also evaluated for species cross-reactivity to mouse and human CD300LB stably expressed in Jurkat cells (generation of which is described above). Cells were counted and labeled with 200 nM CFSE, 500 nM VioBlue, or a combination of the two to discriminate between human CD300LB, Parental cells and mouse CD300LB. Cells were washed thoroughly with PBS containing 2% fetal bovine serum then resuspended at a total of 240,000 cells per well. Hybridoma supernatants (100 L) or purified antibodies at 10 μg/mL were added and incubated for one hour before the cells were washed again and stained with an APC-labeled anti-human or anti-mouse secondary. Cells were then analyzed using a BD FACSCanto II. Antibodies were analyzed for binding to mouse or human CD300LB by FlowJo software by gating on live cells, then the APC gMFI calculated for each labeled population by subtraction of the gMFI of the appropriate isotype control.
# [2] = target: T2, human CD300LB transiently expressed on …; assay: flow cytometry, transfected HEK293, 10 ug/mL, isotype subtracted
# Protocol: In addition, supernatants or purified antibodies were tested for species crossreactivity by comparing the binding of human, mouse, and cynomolgous monkey CD300LB expressing cell lines. HEK293 were transfected with […] of human, mouse, and cyno CD300LB expression constructs using the Mirus system in 10 cm tissue culture dishes. Cells were then incubated for 24 hours in complete medium. Cells were harvested by incubation in TrypLE Express, then washed with PBS and labeled with 200 nM CFSE, 500 nM VioBlue, or a combination of the two to discriminate between human, mouse, and cyno CD300LB expressing cells. Cells were washed thoroughly with PBS containing 2% fetal bovine serum then resuspended at a total of 240,000 cells per well. Purified antibodies at 10 μg/mL were added and incubated for one hour before the cells were washed again and stained with an APC-labeled anti-human or anti-mouse secondary. Cells were then analyzed using a BD FACSCanto II. Antibodies were analyzed for specific binding to human, mouse, or cyno CD300LB by FlowJo software by gating on live cells, then the APC gMFI calculated for each labeled population minus the gMFI of the isotype control.
# [3] = target: T3, huCD300F constitutively expressed on …; assay: flow cytometry, stable Freestyle HEK cells
# Protocol: (§1) Other members of the human CD300 family share sequence homology with human CD300LB. Thus, counter screens against binding of the anti-CD300LB antibodies to huCD300A, huCD300C, huCD300LD, huCD300E, huCD300LF, and huCD300G by stable overexpression in Freestyle HEK cells (generation of which is described above) were performed as follows. Cells were counted and labeled with 200 nM CFSE, 500 nM VioBlue, or a combination of the two to discriminate between CD300LB, Parental cells, and the other CD300 family members. Cells were washed thoroughly with PBS containing 2% fetal bovine serum then resuspended at a total of 240,000 cells per well. Hybridoma supernatants (100 L) or purified antibodies at various concentrations were added and incubated for one hour before the cells were washed twice again and stained with an APC-labeled anti-human or anti-mouse secondary antibody. Cells were then analyzed using a BD FACSCanto II. Anti-CD300LB antibodies were analyzed for specific binding to human CD300LB by FlowJo software by gating on live cells, then the APC geometric mean fluorescence intensity (gMFI) calculated for each labeled population. The results are shown in […]
# (§2) Freestyle HEK cells were transfected with huCD300A, huCD300C, huCD300D, huCD300E, and huCD300G separately. Then, five stable cell lines from these transfections were pooled; the combined cells are herein known as CD300A/C/D/E/G. Freestyle HEK cells were also transfected with huCD300LB and huCD300F. All transfected cells were then tested for binding of anti-CD300LB antibodies of the present disclosure.
# [4] = target: T4, huCD300LB-DAP12 fusion constitutively expressed on 293 Freestyle (Freestyle HEK) cells (human); assay: flow cytometry, stable Freestyle HEK cells
# T4 construct: also called Human CD300LB-DAP12 chimera
# Protocol: as §1, §2
Binder,gMFI [1] [gMFI],gMFI [2] [gMFI],binding result [3],gMFI [3] [gMFI],gMFI [4] [gMFI]
"anti-CD300LB antibody CD-11 (antibody, V domains shown) VH: QIQLVQSGPEVKKPGETVKISCKASGYTLTDYSMHWVMQTPGTGLKWMAWMNTETGEPTYADDFKGRFAFSLETSAGTAYLQIDNLKNEDTATYFCATYGKSYGMKYWGQGTSVTVSS VL: DIVLTQSPPSLAVSLGQRATISCRATKSVSPYLHWYQQTPGQPPKLLIYLASNLDSGVPARFSGSGSGTDFTLNIHPVEEEDAATYYCQHNKELPPTFGGGTRLEIK",320,,,,
"anti-CD300LB antibody CD-07 (antibody, V domains shown) VH: QVQLVQSGAEVKKPGASVKVSCKASGYTFTNYRMHWVRQAPGQGLEWMGWINPNSGGTIYAQKFQGRVTMTRDTSTSTVYMELSSLRSEDTAVYYCARDLDYWGQGTLVTVSS VL: DIQMTQSPSSLSASVGDRVTITCQASQDISNYLNWYQQKPGKAPKLLIYGASSLQSGVPSRFSGSGSGTDFTLTISSLQPEDFATYYCQQSYSTPWTFGPGTKVEIK",,686,no binding,112,31500
"anti-CD300LB antibody CD-05 (antibody, V domains shown) VH: QVQLVQSGAEVKKPGASVKVSCKASGYTFSRYYINWVRQAPGQGLEWMGWINPNSGGTNYAQKFQGRVTMTRDTSTSTVYMELSSLRSEDTAVYYCTTDQLRFGKTGPYYGMDVWGQGTTVTVSS VL: DIQMTQSPSSLSASVGDRVTITCRASQNIGTYLNWYQQKPGKAPKLLIYAASSLQSGVPSRFSGSGSGTDFTLTISSLQPEDFATYYCQQSYSDTLTFGGGTKVEIK",172,933,no binding,2730,113000
"anti-CD300LB antibody CD-18 (antibody, V domains shown) VH: DVQLQESGPDLVKPSQSLSLTCTVTGYSITSGYSWHWIRQFPDNKLEWMGYILSRGDTNFNPSLKSRISITRSTSNNQFFLHFNSVTTEDTATYYCARDFFDYWGQGTTLTVSS VL: DVLMTQTPLSLPVSLGDQASISCRSSQSIVHSNGNTYLEWYLQKPGQSPKLLIYKVSDRFSGVPDRFSGSGSGTDFTLKISRVEAEDLGVYFCFQGSHVPYTFGGGTKLEIK",643,,,,
"anti-CD300LB antibody CD-13 (antibody, V domains shown) VH: QIQLVQSGPELKKPGETVKISCKASGYTFTDYSMHWVKQAPGKGFKWMAWINTETGAPTHADDFRGRFAFSLETSASTAFLQISNLKTEDTATYFCVTFGKSYGMNYWGQGTSVTVSS VL: DIVLTQSPASLSVSLGQRATISCRASKSVGSSGSSYLHWYQQKPGQPPKLLIYLASNLESGVPARFSGSGSGTEFTLNIHPVEEEDAATYYCQHNAEVPPTFGGGTKLEIK",1190,,,,
"anti-CD300LB antibody CD-15 (antibody, V domains shown) VH: QIQLVQSGPELKKPGETVKISCQVSGYTFTDYSMHWLKQAPGKGLKWMAWINTETGESTYTDEFKGRFVFSLETSVRTAYLKINNLKNEDTATYFCGTYGSSYGMAYWGQGTSVTVSS VL: DIVLTQSPASLPVSLGQRATISCRASKSVSTSGSSYLHWYQQKPGQPPKLLIYLASKLESGVPARFRGSGSGTDFTLNIHPVEEEDAATYYCQHNREVPPTFGGGTKLEIK",506,,,,
"anti-CD300LB antibody CD-16 (antibody, V domains shown) VH: QIQLVQSGPELKKPGETVKISCKASGYTFTDYSMHWVKQAPGKGLKWMAWINTETGEPTYADDFRGRFAFSLETSGRTAYLEINNLRNEDTATYFCVTYGSSYGMAYWGQGTSVTVSS VL: DIVLTQSPASLAVSLGQRATISCRASKSVSRSGYSYLHWYQQKPGQPPKLLIYLASKLESGVPARFSGSGSGTDFTLNIHPVEAEDAATYYCQHNREIPPTFGGGTKLEIK",504,,,,
"anti-CD300LB antibody CD-14 (antibody, V domains shown) VH: QIQLVQSGPELKKPGETVKISCKASGYTFTDYSLHWVKQTPEKNLKWMAWINTETGAPTYADDFKGRFAFSLETSSNTAYLLINNLKNEDTATYFCALTMVNYWGQGTTLTVSS VL: DIVMTQSQKFMSTSVGDRVSVTCKASQNVGIRVAWHQQKPGQSPKTLIYSTSYRYSGVPDRFTGSGSGTEFILTISNVQSEDLAEYFCQQYNSYPYTFGGGTKLEIK",950,,,,
"anti-CD300LB antibody CD-10 (antibody, V domains shown) VH: QVQLQQSGPELVRPGVSVKISCKGSGYTFTDYAMHWVKQSHVRSREWIGVIGTYNGHTNYNQKFKGKATMTVDKSSSTAYLELARLTSEDSAIYYCARSGSYYYSMDYWGQGTSVTVSS VL: QIVLTQSPAIMSASPGEKVTMTCSASSSVNYMHWYQQKSGTSPKRWIYDTSKLSSGVPARFSGSGSGTSYSLTISTMEAEDAATYYCQQWSSNPPMTFGGGTKLEIK",284,,,,
"anti-CD300LB antibody CD-03 (antibody, V domains shown) VH: EVQLQQSGPELVKPGASVKISCKASGYTFTDYYINWVRQSHGKSLECIGDINPNNGGTNYNQKFKGKATLTVDRSSNTAYMEFRSLTFDDSALYYCAAEGAYWGQGTLVTVSA VL: not shown",,38.7,no binding,2090,163000
"anti-CD300LB antibody CD-01 (antibody, V domains shown) VH: RVQLQQSGAELVRPGASVTLSCKASGFTFTDFEMHWVKKTPVHGLEWIGAIDPESGNTAYNQKFRGKATLTADKSSSTAYMELRYLTSEDSAVYYCTPLISGADYWGQGTTLTVSS VL: DVVMTQSPLSLPVSLGDQASISCRSSQSLVHSDGNTYLYWYLQKPGQSPKLLIYKVSNRFSGVPDRFSGSGSGTDFTFKISRVGAEDLGVYFCSQSTHVPWTFGGGTKLEII",860,166,,-26,45
"anti-CD300LB antibody CD-17 (antibody, V domains shown) VH: QIQLVQSGPELKKPGETVKISCKASGYTLTDYSMHWVKQAPGKGLKWMGWINTETGEPRYGDDFKGRFAFSLETSASSAYLQINNLKNDDTATYFCATYGRSYGMDFWGQGTSVTVSS VL: DIVLTQSPASLAVSLGQRATISCRASKSVSPSGHSYMHWYQQKPGQPPKLLIYLASNLKSGVPARFSGSGSGTDFTLNIHPVEEGDAATYYCQHNRELPPTFGGGSKLEIK",1680,,,,
"anti-CD300LB antibody CD-02 (antibody, V domains shown) VH: QVQLQQPGAELVRPGSSVKLSCQASGYTFTNYWMHWVRQRPIQGLEWIGNIDPSDSETHYNQKFKDRATLTVDKSSSTAYMQLSSLTSEDSAVYYCARSGVYDDEGGDYWGQGTTLTVSS VL: ENVLTQSPAIMSASPGEKVTMTCSASSSVSYIHWYQQKSSTSPKLWIYDTSKLASGVPGRFSGSGSGNSYSLTISSMETEDVATYYCFQGSGYPLTFGAGTKLELK",23,578,,-93,108

# Source: patent US20240254227A1 (Alector, published 2024)
